Target: Bovine submaxillary mucin (BSM) (bovine)
Assay: binding of the 125I-labelled protein to BSM

Substance	Percent Activity (as determined by BSM binding) [percent]
CC49, murine monoclonal antibody specific to TAG-72 (ATCC No. HB9459)	96
ChCC49 Fab	64

— patent US6071515
